# B1: STEAP1 (parent)
# chain: LWKMKPRRNLEEDDYLHKDTGETS
# Variants of: B1
# Assay: protein stability index of a GFP-peptide fusion (GPS, HEK-293T) (PSI 1-6); higher = more stable
# Details: c terminus: a fixed tail appended
# 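Note: lentivirally expressed fusions sorted by FACS into six bins by GFP to DsRed ratio, PSI derived from sequencing read proportions per bin multiplied by bin number.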
row,Variant,protein stability index
1,K5C,4.45
2,K5V,3.94
3,K5R,4.11
4,K5N,4.32
5,K5Y,3.9
6,K5T,4.56
7,K5H,4.4
8,K5G,4.5
9,K5F,2.77
10,K5M,4
11,K5I,3.36
12,K5P,4.91
13,K5A,3.93
14,K5D,4.8
15,K5E,4.74
16,K5S,5.01
17,K5Q,4.86
18,K5L,3.98
19,K5W,2.86
20,Y15C,4.66
21,Y15I,3.61
22,Y15N,4.57
23,Y15D,5.15
24,Y15L,4.33

row,Variant,protein stability index
1,Y15H,4.66
2,Y15G,4.83
3,Y15M,4.68
4,Y15P,4.81
5,Y15R,4.53
6,Y15W,4.26
7,Y15S,5.16
8,Y15A,5.02
9,Y15K,4.84
10,Y15T,5.04
11,Y15F,4.14
12,Y15E,4.77
13,Y15Q,4.92
14,Y15V,5.07
15,E12F,3.51
16,E12V,4.09
17,E12D,4.46
18,E12K,4.25
19,E12W,3.16
20,E12R,4.07
21,E12M,3.63
22,E12N,4.15
23,E12H,3.75
24,E12L,3.74

row,Variant,protein stability index
1,E12A,4.06
2,E12I,3.66
3,E12G,4.16
4,E12T,4.28
5,E12Y,3.3
6,E12Q,4.23
7,E12C,3.96
8,E12S,4.45
9,E12P,4.26
10,N9G,4.58
11,N9W,3.08
12,N9M,4.36
13,N9V,4.18
14,N9T,4.49
15,N9L,4.15
16,N9K,4.44
17,N9P,4.11
18,N9Y,4.07
19,N9F,4.06
20,N9S,4.56
21,N9A,4.41
22,N9R,4.23
23,N9E,4.49
24,N9D,4.53

row,Variant,protein stability index
1,N9I,4.15
2,N9C,3.81
3,N9H,4.47
4,N9Q,4.41
5,W2K,4.78
6,W2M,4.78
7,W2H,4.96
8,W2T,5.22
9,W2S,5.48
10,W2Y,4.92
11,W2V,4.99
12,W2C,5.08
13,W2D,5.62
14,W2I,5.05
15,W2N,4.82
16,W2G,4.96
17,W2E,5.45
18,W2R,4.83
19,W2A,5.25
20,W2P,5.49
21,W2Q,5.31
22,W2L,5
23,W2F,4.55
24,D13C,3.65

row,Variant,protein stability index
1,D13P,4.45
2,D13M,3.8
3,D13E,4.84
4,D13S,3.85
5,D13Q,4.63
6,D13A,3.94
7,D13I,3.84
8,D13W,3.21
9,D13L,3.88
10,D13T,4.19
11,D13K,4.43
12,D13G,4.61
13,D13V,3.87
14,D13F,3.83
15,D13N,4.35
16,D13Y,4.17
17,D13H,3.88
18,D13R,4.15
19,K3C,3.49
20,K3E,5.19
21,K3Y,3.81
22,K3W,3.27
23,K3P,4.72
24,K3H,4.54

row,Variant,protein stability index
1,K3G,4.22
2,K3A,4.19
3,K3F,3.31
4,K3T,4.36
5,K3Q,4.88
6,K3S,4.51
7,K3N,4.8
8,K3M,4.11
9,K3L,3.81
10,K3I,2.86
11,K3R,4.28
12,K3V,3.67
13,K3D,5.06
14,L1E,5.32
15,L1H,4.92
16,L1C,4.43
17,L1N,4.84
18,L1D,5.23
19,L1M,4.59
20,L1Q,5.18
21,L1S,4.78
22,L1A,5.06
23,L1G,4.75
24,L1T,5

row,Variant,protein stability index
1,L1I,3.97
2,L1P,5.08
3,L1R,4.8
4,L1K,4.57
5,L1V,4.69
6,L1F,4.31
7,L1Y,4.26
8,L1W,4.18
9,P6E,5.13
10,P6V,3.96
11,P6D,4.41
12,P6R,3.65
13,P6Q,3.94
14,P6N,4.52
15,P6F,3.62
16,P6K,4.1
17,P6H,4
18,P6I,3.94
19,P6M,3.77
20,P6W,3.16
21,P6G,4.42
22,P6A,3.94
23,P6T,4.47
